We go through 4 molecules from publication PMC10397247.

The target of one assay is T1, 4H2692-bA.
T1 chain: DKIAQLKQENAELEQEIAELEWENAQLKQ
Description: two-hybrid library CCNG1.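 Note: natural log of median RNA to DNA barcode read ratio; higher means stronger binding.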

The next assay has as its target T2, 4H2717-bA.
T2 chain: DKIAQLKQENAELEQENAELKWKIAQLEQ
Put plainly: two-hybrid library CCNG1.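 Note: natural log of median RNA to DNA barcode read ratio; higher means stronger binding.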

Another assay addresses T3, 4H2839-bA.
T3 chain: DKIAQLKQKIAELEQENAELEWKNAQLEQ
Description: two-hybrid library CCNG1.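 Note: natural log of median RNA to DNA barcode read ratio; higher means stronger binding.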

The target of the next assay is T4, 4H2859-bH.
T4 chain: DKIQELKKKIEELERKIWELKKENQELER
Description: two-hybrid library CCNG1.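 Note: natural log of median RNA to DNA barcode read ratio; higher means stronger binding.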

The next assay addresses T5, 4H2915-bA.
T5 chain: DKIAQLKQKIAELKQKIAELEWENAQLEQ
Put plainly: two-hybrid library CCNG1.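 Note: natural log of median RNA to DNA barcode read ratio; higher means stronger binding.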

The next assay has as its target T6, 4H3057-bA.
T6 chain: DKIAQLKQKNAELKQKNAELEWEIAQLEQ
Put plainly: two-hybrid library CCNG1.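 Note: natural log of median RNA to DNA barcode read ratio; higher means stronger binding.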

For a further assay, the target named is T7, 4H319-bA.
T7 chain: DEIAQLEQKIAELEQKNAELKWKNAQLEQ
Description: two-hybrid library CCNG1.

Another assay deals with T8, 4H319-bN.
T8 chain: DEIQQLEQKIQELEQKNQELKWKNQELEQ
Put plainly: two-hybrid library CCNG1.

A further assay addresses T9, 4H3277-bA.
T9 chain: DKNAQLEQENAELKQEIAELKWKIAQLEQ
Description: two-hybrid library CCNG1.

For the next assay, the target named is T10, 4H3298-bA.
T10 chain: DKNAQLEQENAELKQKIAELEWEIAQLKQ
Put plainly: two-hybrid library CCNG1.

The target in a further assay is T11, 4H348-bA.
T11 chain: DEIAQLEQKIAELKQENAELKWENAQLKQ
Description: two-hybrid library CCNG1.

The target in the next assay is T12, 4H40-bA.
T12 chain: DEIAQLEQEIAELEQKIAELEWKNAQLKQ
Put plainly: two-hybrid library CCNG1.

Another assay deals with T13, 4H477-bA.
T13 chain: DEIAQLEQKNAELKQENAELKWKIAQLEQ
Description: two-hybrid library CCNG1.

The next assay deals with T14, 4H492-bA.
T14 chain: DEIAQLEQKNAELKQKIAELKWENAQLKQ
Put plainly: two-hybrid library CCNG1.

A further assay deals with T15, 4H741-bA.
T15 chain: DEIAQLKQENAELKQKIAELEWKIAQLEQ
Put plainly: two-hybrid library CCNG1.

A further assay concerns the target T16, O6-bP.
T16 chain: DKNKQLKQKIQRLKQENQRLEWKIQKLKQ
Put plainly: two-hybrid library CCNG1.

In the next assay the target is T17, 4H3172-bN.
T17 chain: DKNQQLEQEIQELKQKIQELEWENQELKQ
Put plainly: two-hybrid library CCNG1.

A further assay concerns the target T18, 4H3414-bN.
T18 chain: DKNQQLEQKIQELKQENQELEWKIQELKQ
Description: two-hybrid library CCNG1.

Another assay concerns the target T19, 4H3631-bN.
T19 chain: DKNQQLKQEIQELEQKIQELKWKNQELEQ
Description: two-hybrid library CCNG1.

In a further assay the target is T20, 4H3638-bN.
T20 chain: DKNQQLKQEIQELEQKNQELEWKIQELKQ
Put plainly: two-hybrid library CCNG1.

The target in a further assay is T21, 4H3817-bN.
T21 chain: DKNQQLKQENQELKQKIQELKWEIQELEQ
Put plainly: two-hybrid library CCNG1.

The target of another assay is T22, 4H3974-bN.
T22 chain: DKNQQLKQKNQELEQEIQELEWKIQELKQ
Description: two-hybrid library CCNG1.

The target in another assay is T23, 4H570-bN.
T23 chain: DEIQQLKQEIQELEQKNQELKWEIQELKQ
Description: two-hybrid library CCNG1.

The next assay addresses T24, 4H584-bN.
T24 chain: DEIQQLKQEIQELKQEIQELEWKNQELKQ
Description: two-hybrid library CCNG1.

A further assay deals with T25, 4H619-bN.
T25 chain: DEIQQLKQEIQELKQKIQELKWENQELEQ
Put plainly: two-hybrid library CCNG1.

Another assay has as its target T26, 4H850-bN.
T26 chain: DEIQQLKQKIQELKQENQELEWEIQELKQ
Description: two-hybrid library CCNG1.

In a further assay the target is T27, 4H906-bN.
T27 chain: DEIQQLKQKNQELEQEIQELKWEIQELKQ
Put plainly: two-hybrid library CCNG1.

The target in a further assay is T28, P2-AA-1HAA-D.
T28 chain: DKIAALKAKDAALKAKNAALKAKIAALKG
Description: two-hybrid library CCmax. Conditions: mean of both orientations.

The next assay deals with T29, P2-AA-1HAA-E.
T29 chain: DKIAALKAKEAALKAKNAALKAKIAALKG
Description: two-hybrid library CCmax. Conditions: mean of both orientations.

In another assay the target is T30, P2-AA-1HAA-I.
T30 chain: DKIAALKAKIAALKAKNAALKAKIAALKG
Put plainly: two-hybrid library CCmax. Conditions: mean of both orientations.

For another assay, the target named is T31, P2-AA-1HAA-R.
T31 chain: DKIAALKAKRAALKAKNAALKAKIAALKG
Description: two-hybrid library CCmax. The note with it: mean of both orientations.

In the next assay the target is T32, P2-AA-1HAA-T.
T32 chain: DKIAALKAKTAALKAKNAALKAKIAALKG
Put plainly: two-hybrid library CCmax. Conditions: mean of both orientations.

The next assay has as its target T33, P2-AA-1HAA-V.
T33 chain: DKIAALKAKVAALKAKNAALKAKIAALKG
Put plainly: two-hybrid library CCmax. The note with it: mean of both orientations.

The target in a further assay is T34, P2-AA.
T34 chain: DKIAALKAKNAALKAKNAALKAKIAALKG
Put plainly: two-hybrid library CCmax. Conditions: mean of both orientations.

In another assay the target is T35, 4H2760-bA.
T35 chain: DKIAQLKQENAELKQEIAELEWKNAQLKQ
Put plainly: two-hybrid library CCNG1.

The target of another assay is T36, 4H2760-bN.
T36 chain: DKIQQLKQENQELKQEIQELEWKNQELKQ
Description: two-hybrid library CCNG1.

Another assay addresses T37, 4H2859-bA.
T37 chain: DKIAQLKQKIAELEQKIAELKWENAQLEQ
Put plainly: two-hybrid library CCNG1.

The target of a further assay is T38, 4H2931-bA.
T38 chain: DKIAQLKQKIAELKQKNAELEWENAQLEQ
Put plainly: two-hybrid library CCNG1.

The target of another assay is T39, 4H3041-bA.
T39 chain: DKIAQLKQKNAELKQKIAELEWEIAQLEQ
Description: two-hybrid library CCNG1.

The next assay addresses T40, 4H3297-bA.
T40 chain: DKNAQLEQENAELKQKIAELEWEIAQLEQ
Put plainly: two-hybrid library CCNG1.

For a further assay, the target named is T41, 4H3364-bA.
T41 chain: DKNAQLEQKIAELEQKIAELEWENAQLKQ
Put plainly: two-hybrid library CCNG1.

Another assay deals with T42, 4H3381-bA.
T42 chain: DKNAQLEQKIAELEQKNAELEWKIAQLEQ
Put plainly: two-hybrid library CCNG1.

The target of the next assay is T43, 4H349-bA.
T43 chain: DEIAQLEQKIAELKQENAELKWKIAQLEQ
Description: two-hybrid library CCNG1.

For another assay, the target named is T44, 4H56-bA.
T44 chain: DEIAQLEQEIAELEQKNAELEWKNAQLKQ
Put plainly: two-hybrid library CCNG1.

A further assay has as its target T45, 4H626-bA.
T45 chain: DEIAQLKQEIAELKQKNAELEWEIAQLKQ
Description: two-hybrid library CCNG1.

A further assay has as its target T46, 4H730-bA.
T46 chain: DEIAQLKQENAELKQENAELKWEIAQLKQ
Put plainly: two-hybrid library CCNG1.

Another assay deals with T47, 4H796-bA.
T47 chain: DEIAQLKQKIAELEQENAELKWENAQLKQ
Description: two-hybrid library CCNG1.

For another assay, the target named is T48, 4H932-bA.
T48 chain: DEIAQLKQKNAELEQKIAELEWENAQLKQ
Description: two-hybrid library CCNG1.

The next assay deals with T49, 4H949-bA.
T49 chain: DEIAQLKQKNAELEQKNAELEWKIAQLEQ
Description: two-hybrid library CCNG1.

The target in the next assay is T50, 4H967-bN.
T50 chain: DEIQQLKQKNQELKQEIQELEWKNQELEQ
Put plainly: two-hybrid library CCNG1.

B1: 4H2692-bA (peptide)
chain: DKIAQLKQENAELEQEIAELEWENAQLKQ
For the molecule B1, the interaction score in the assay with 4H2692-bA was -0.461; with 4H2717-bA it was -0.0486; in the assay with 4H2839-bA, -1.15; with 4H2859-bH, -0.0963; with 4H2915-bA, 0.654; in the assay with 4H3057-bA, -0.734. The interaction score with 4H319-bA was -0.498; in the assay with 4H319-bN it was 0.192; in the assay with 4H3277-bA it was -0.458; with 4H3298-bA, 1.59; with 4H348-bA, -1.58; in the assay with 4H40-bA it was -0.113. For the same molecule, the interaction score with 4H477-bA was -1.06; in the assay with 4H492-bA it was 2.26; with 4H741-bA it was -0.251; with O6-bP it was 0.95.

B2: 4H3172-bN (peptide)
chain: DKNQQLEQEIQELKQKIQELEWENQELKQ
Consider B2, for which the interaction score with 4H3172-bN was -0.109; with 4H3414-bN, 0.0803; with 4H3631-bN, 1.27; with 4H3638-bN, -0.362; with 4H3817-bN, -0.519; in the assay with 4H3974-bN, -0.234. Moreover, the interaction score in the assay with 4H570-bN is -0.602; with 4H584-bN, -0.681; with 4H619-bN it was 0.271; with 4H850-bN, -0.789; with 4H906-bN it was -1.5.

B3: P1-AA-1HAA-Y (peptide)
chain: DEIAALEAEYAALEAENAALEAEIAALEG
Consider B3, for which the interaction score with P2-AA-1HAA-D came out at 0.371; in the assay with P2-AA-1HAA-E, 0.866; with P2-AA-1HAA-I it was 2.07; with P2-AA-1HAA-R it was 1.52; with P2-AA-1HAA-T it was 1.95; with P2-AA-1HAA-V, 1.99. This molecule also registered an interaction score with P2-AA of 2.07.

B4: 4H2760-bA (peptide)
chain: DKIAQLKQENAELKQEIAELEWKNAQLKQ
On to B4, for which the interaction score was 0.895 with 4H2760-bA; -1.33 with 4H2760-bN; 0.0768 with 4H2859-bA; -0.0923 with 4H2931-bA; 0.518 with 4H3041-bA; 1.18 with 4H3297-bA. The interaction score with 4H3364-bA was 0.448; with 4H3381-bA, -0.726; with 4H349-bA, -0.95; in the assay with 4H56-bA, -1.54; with 4H626-bA it was -2.94; with 4H730-bA, -0.287. Further, the interaction score with 4H796-bA was -0.576; with 4H932-bA it was 0.295; with 4H949-bA, -1.14; in the assay with 4H967-bN it was -2.38.
